Results as given in paper PMC4889959 (Nucleic Acids Research, 2016).

Biological target: the molecule itself
Assay: SEC; 2 mg of protein (20 mg/ml) on a calibrated Superdex 75 column (120 ml), 25 mM pH 8.0 Tris-HCl, 150 mM NaCl, 2 mM DTT

B1: Human SLX4BTB (residues 660–795) (domain or fragment, UniProt Q8IY92 660-795, looked up)
chain: QDKHPDRGGRTLLSLGLLVADFGAMVNNPHLSDVQFQTDSGEVLYAHKFVLYARCPLLIQYVNNEGFSAVEDGVLTQRVLLGDVSTEAARTFLHYLYTADTGLPPGLSSELSSLAHRFGVSELVHLCEQVPIATDS
stoichiometry N: 2
